# Test results: publication PMC10397247
# T1: 4H2109-AA
# T1 chain: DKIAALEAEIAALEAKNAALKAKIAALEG
# T2: 4H2162-AA
# T2 chain: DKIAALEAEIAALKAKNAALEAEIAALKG
# T3: 4H2253-AA
# T3 chain: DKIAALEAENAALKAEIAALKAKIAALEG
# T4: 4H2274-AA
# T4 chain: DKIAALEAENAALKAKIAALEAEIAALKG
# T5: 4H2330-AA
# T5 chain: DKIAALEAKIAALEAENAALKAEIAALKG
# T6: 4H2389-AA
# T6 chain: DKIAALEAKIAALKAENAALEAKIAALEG
# T7: 4H2438-AA
# T7 chain: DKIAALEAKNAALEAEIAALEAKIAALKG
# T8: 4H2473-AA
# T8 chain: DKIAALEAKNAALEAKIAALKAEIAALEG
# T9: 4H2649-AA
# T9 chain: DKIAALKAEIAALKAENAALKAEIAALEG
# T10: 4H2698-AA
# T10 chain: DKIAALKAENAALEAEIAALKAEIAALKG
# T11: 4H2725-AA
# T11 chain: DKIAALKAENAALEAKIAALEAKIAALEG
# T12: 4H2865-AA
# T12 chain: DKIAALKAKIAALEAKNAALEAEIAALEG
# T13: 4H3009-AA
# T13 chain: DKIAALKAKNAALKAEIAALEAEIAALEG
# T14: 4H3016-AA
# T14 chain: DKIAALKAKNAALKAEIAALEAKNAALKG
# T15: 4H310-AA
# T15 chain: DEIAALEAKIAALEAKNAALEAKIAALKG
# T16: 4H3120-AA
# T16 chain: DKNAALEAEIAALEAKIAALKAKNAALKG
# T17: 4H3130-AA
# T17 chain: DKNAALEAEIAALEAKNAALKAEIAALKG
# T18: 4H3165-AA
# T18 chain: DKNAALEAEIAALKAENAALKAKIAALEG
# T19: 4H3381-AA
# T19 chain: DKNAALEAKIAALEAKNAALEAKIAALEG
# T20: 4H3395-AA
# T20 chain: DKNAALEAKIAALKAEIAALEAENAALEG
# T21: 4H3410-AA
# T21 chain: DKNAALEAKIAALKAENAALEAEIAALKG
# T22: 4H3590-AA
# T22 chain: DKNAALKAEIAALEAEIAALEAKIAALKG
# T23: 4H3697-AA
# T23 chain: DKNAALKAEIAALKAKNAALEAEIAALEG
# T24: 4H3753-AA
# T24 chain: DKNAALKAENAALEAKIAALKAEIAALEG
# T25: 4H3865-AA
# T25 chain: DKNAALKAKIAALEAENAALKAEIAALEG
# T26: 4H458-AA
# T26 chain: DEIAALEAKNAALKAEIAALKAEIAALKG
# T27: 4H485-AA
# T27 chain: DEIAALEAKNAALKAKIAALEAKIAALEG
# T28: 4H536-AA
# T28 chain: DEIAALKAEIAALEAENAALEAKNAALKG
# T29: 4H570-AA
# T29 chain: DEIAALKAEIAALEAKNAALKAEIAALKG
# T30: 4H629-AA
# T30 chain: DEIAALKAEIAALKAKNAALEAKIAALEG
# T31: 4H710-AA
# T31 chain: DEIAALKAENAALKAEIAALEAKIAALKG
# T32: 4H745-AA
# T32 chain: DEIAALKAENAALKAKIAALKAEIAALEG
# T33: 4H797-AA
# T33 chain: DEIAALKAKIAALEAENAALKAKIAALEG
# T34: 4H850-AA
# T34 chain: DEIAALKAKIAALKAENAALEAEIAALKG
# T35: 4H891-AA
# T35 chain: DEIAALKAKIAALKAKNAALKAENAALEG
# T36: 4H909-AA
# T36 chain: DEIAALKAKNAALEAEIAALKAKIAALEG
# T37: 4H930-AA
# T37 chain: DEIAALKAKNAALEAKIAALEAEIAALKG
# T38: 4H94-AA
# T38 chain: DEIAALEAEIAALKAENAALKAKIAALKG
# T39: 4H3628-bH
# T39 chain: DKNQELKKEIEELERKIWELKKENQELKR
# T40: 4H3817-bH
# T40 chain: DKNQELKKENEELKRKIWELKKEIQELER
# T41: 4H3858-bH
# T41 chain: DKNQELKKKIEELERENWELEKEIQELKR
# T42: 4H3926-bH
# T42 chain: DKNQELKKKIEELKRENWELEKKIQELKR
# T43: 4H3974-bH
# T43 chain: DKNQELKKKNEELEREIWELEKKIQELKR
# T44: 4H570-bH
# T44 chain: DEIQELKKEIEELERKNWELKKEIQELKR
# T45: 4H591-bH
# T45 chain: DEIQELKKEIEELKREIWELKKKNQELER
# T46: 4H626-bH
# T46 chain: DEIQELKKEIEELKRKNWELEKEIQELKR
# T47: 4H850-bH
# T47 chain: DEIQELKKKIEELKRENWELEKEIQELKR
# T48: 4H906-bH
# T48 chain: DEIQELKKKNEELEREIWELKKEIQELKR
# T49: 4H3613-bH
# T49 chain: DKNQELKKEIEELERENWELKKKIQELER
# Key:
# 4H2109-AA = target: T1, 4H2109-AA; assay: two-hybrid library CCmax;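 also: natural log of median RNA to DNA barcode read ratio; higher means stronger binding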
# 4H2162-AA = target: T2, 4H2162-AA; assay: two-hybrid library CCmax; details: mean of both orientations;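 also: natural log of median RNA to DNA barcode read ratio; higher means stronger binding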
# 4H2253-AA = target: T3, 4H2253-AA; assay: two-hybrid library CCmax; details: mean of both orientations;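 also: natural log of median RNA to DNA barcode read ratio; higher means stronger binding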
# 4H2274-AA = target: T4, 4H2274-AA; assay: two-hybrid library CCmax; details: mean of both orientations;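 also: natural log of median RNA to DNA barcode read ratio; higher means stronger binding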
# 4H2330-AA = target: T5, 4H2330-AA; assay: two-hybrid library CCmax; details: mean of both orientations;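 also: natural log of median RNA to DNA barcode read ratio; higher means stronger binding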
# 4H2389-AA = target: T6, 4H2389-AA; assay: two-hybrid library CCmax; details: mean of both orientations;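 also: natural log of median RNA to DNA barcode read ratio; higher means stronger binding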
# 4H2438-AA = target: T7, 4H2438-AA; assay: two-hybrid library CCmax; details: mean of both orientations
# 4H2473-AA = target: T8, 4H2473-AA; assay: two-hybrid library CCmax; details: mean of both orientations
# 4H2649-AA = target: T9, 4H2649-AA; assay: two-hybrid library CCmax; details: mean of both orientations
# 4H2698-AA = target: T10, 4H2698-AA; assay: two-hybrid library CCmax; details: mean of both orientations
# 4H2725-AA = target: T11, 4H2725-AA; assay: two-hybrid library CCmax; details: mean of both orientations
# 4H2865-AA = target: T12, 4H2865-AA; assay: two-hybrid library CCmax; details: mean of both orientations
# 4H3009-AA = target: T13, 4H3009-AA; assay: two-hybrid library CCmax; details: mean of both orientations
# 4H3016-AA = target: T14, 4H3016-AA; assay: two-hybrid library CCmax; details: mean of both orientations
# 4H310-AA = target: T15, 4H310-AA; assay: two-hybrid library CCmax; details: mean of both orientations
# 4H3120-AA = target: T16, 4H3120-AA; assay: two-hybrid library CCmax; details: mean of both orientations
# 4H3130-AA = target: T17, 4H3130-AA; assay: two-hybrid library CCmax; details: mean of both orientations
# 4H3165-AA = target: T18, 4H3165-AA; assay: two-hybrid library CCmax; details: mean of both orientations
# 4H3381-AA = target: T19, 4H3381-AA; assay: two-hybrid library CCmax; details: mean of both orientations
# 4H3395-AA = target: T20, 4H3395-AA; assay: two-hybrid library CCmax; details: mean of both orientations
# 4H3410-AA = target: T21, 4H3410-AA; assay: two-hybrid library CCmax; details: mean of both orientations
# 4H3590-AA = target: T22, 4H3590-AA; assay: two-hybrid library CCmax; details: mean of both orientations
# 4H3697-AA = target: T23, 4H3697-AA; assay: two-hybrid library CCmax; details: mean of both orientations
# 4H3753-AA = target: T24, 4H3753-AA; assay: two-hybrid library CCmax; details: mean of both orientations
# 4H3865-AA = target: T25, 4H3865-AA; assay: two-hybrid library CCmax
# 4H458-AA = target: T26, 4H458-AA; assay: two-hybrid library CCmax; details: mean of both orientations
# 4H485-AA = target: T27, 4H485-AA; assay: two-hybrid library CCmax; details: mean of both orientations
# 4H536-AA = target: T28, 4H536-AA; assay: two-hybrid library CCmax; details: mean of both orientations
# 4H570-AA = target: T29, 4H570-AA; assay: two-hybrid library CCmax; details: mean of both orientations
# 4H629-AA = target: T30, 4H629-AA; assay: two-hybrid library CCmax; details: mean of both orientations
# 4H710-AA = target: T31, 4H710-AA; assay: two-hybrid library CCmax; details: mean of both orientations
# 4H745-AA = target: T32, 4H745-AA; assay: two-hybrid library CCmax; details: mean of both orientations
# 4H797-AA = target: T33, 4H797-AA; assay: two-hybrid library CCmax; details: mean of both orientations
# 4H850-AA = target: T34, 4H850-AA; assay: two-hybrid library CCmax; details: mean of both orientations
# 4H891-AA = target: T35, 4H891-AA; assay: two-hybrid library CCmax; details: mean of both orientations
# 4H909-AA = target: T36, 4H909-AA; assay: two-hybrid library CCmax; details: mean of both orientations
# 4H930-AA = target: T37, 4H930-AA; assay: two-hybrid library CCmax; details: mean of both orientations
# 4H94-AA = target: T38, 4H94-AA; assay: two-hybrid library CCmax; details: mean of both orientations
# 4H3628-bH = target: T39, 4H3628-bH; assay: two-hybrid library CCNG1
# 4H3817-bH = target: T40, 4H3817-bH; assay: two-hybrid library CCNG1
# 4H3858-bH = target: T41, 4H3858-bH; assay: two-hybrid library CCNG1
# 4H3926-bH = target: T42, 4H3926-bH; assay: two-hybrid library CCNG1
# 4H3974-bH = target: T43, 4H3974-bH; assay: two-hybrid library CCNG1
# 4H570-bH = target: T44, 4H570-bH; assay: two-hybrid library CCNG1
# 4H591-bH = target: T45, 4H591-bH; assay: two-hybrid library CCNG1
# 4H626-bH = target: T46, 4H626-bH; assay: two-hybrid library CCNG1
# 4H850-bH = target: T47, 4H850-bH; assay: two-hybrid library CCNG1
# 4H906-bH = target: T48, 4H906-bH; assay: two-hybrid library CCNG1
# 4H3613-bH = target: T49, 4H3613-bH; assay: two-hybrid library CCNG1
binder,measurement,setting,value
DKIAALEAEIAALEAKNAALKAKIAALEG [4H2109-AA],interaction score,4H2109-AA,1.67
same,interaction score,4H2162-AA,0.55
same,interaction score,4H2253-AA,-1.76
same,interaction score,4H2274-AA,-1.47
same,interaction score,4H2330-AA,0.0427
same,interaction score,4H2389-AA,2.49
same,interaction score,4H2438-AA,-0.365
same,interaction score,4H2473-AA,-0.356
same,interaction score,4H2649-AA,1.26
same,interaction score,4H2698-AA,1.53
same,interaction score,4H2725-AA,0.465
same,interaction score,4H2865-AA,2.17
same,interaction score,4H3009-AA,-0.233
same,interaction score,4H3016-AA,-1.16
same,interaction score,4H310-AA,1.94
same,interaction score,4H3120-AA,-0.474
same,interaction score,4H3130-AA,-1.05
same,interaction score,4H3165-AA,-0.391
same,interaction score,4H3381-AA,-0.283
same,interaction score,4H3395-AA,-0.63
same,interaction score,4H3410-AA,1.87
same,interaction score,4H3590-AA,1.21
same,interaction score,4H3697-AA,-0.415
same,interaction score,4H3753-AA,0.644
same,interaction score,4H3865-AA,-0.488
same,interaction score,4H458-AA,-1.45
same,interaction score,4H485-AA,-0.723
same,interaction score,4H536-AA,0.839
same,interaction score,4H570-AA,-0.239
same,interaction score,4H629-AA,1.09
same,interaction score,4H710-AA,-1.26
same,interaction score,4H745-AA,-0.947
same,interaction score,4H797-AA,1.44
same,interaction score,4H850-AA,2.07
same,interaction score,4H891-AA,-1.3
same,interaction score,4H909-AA,-0.525
same,interaction score,4H930-AA,-0.719
same,interaction score,4H94-AA,1.43
DKNQELKKEIEELERKIWELKKENQELKR [4H3628-bH],interaction score,4H3628-bH,0.896
same,interaction score,4H3817-bH,0.965
same,interaction score,4H3858-bH,0.42
same,interaction score,4H3926-bH,0.588
same,interaction score,4H3974-bH,1.22
same,interaction score,4H570-bH,-1.36
same,interaction score,4H591-bH,0.0937
same,interaction score,4H626-bH,-0.0728
same,interaction score,4H850-bH,0.701
same,interaction score,4H906-bH,-0.107
DKNQELKKEIEELERENWELKKKIQELER [4H3613-bH],interaction score,4H3613-bH,0.898
same,interaction score,4H3628-bH,-0.609
same,interaction score,4H3817-bH,-0.0066
same,interaction score,4H3858-bH,0.0148
same,interaction score,4H3926-bH,1.59
same,interaction score,4H3974-bH,-1.15
same,interaction score,4H570-bH,-0.821
same,interaction score,4H591-bH,-2.09
same,interaction score,4H626-bH,-1.94
same,interaction score,4H850-bH,1.37
same,interaction score,4H906-bH,-1.07
